What was measured:
[1] = target: T1, recombinant GAPDH GapC1 (At3g04120) (A. thaliana, UniProt P25858 1-338); assay: far-Western, overlay or dot blot; GapC and BSA spotted on nitrocellulose, overlaid with VDAC3 in liposomes, without DTT (oxidized GapC); anti-VDAC1 serum, ECL; conditions: both partners purified
T1 construct: cytosolic NAD-dependent glyceraldehyde-3-phosphate dehydrogenase GapC1, A. thaliana, At3g04120; Redox reagents (diamide + GSH, GSSG, GSNO, H2O2 + GSH, DTT) were added to the mixtures; the redox state is told by the assay; source: recombinant, purified
T1 sequence (P25858 whole entry): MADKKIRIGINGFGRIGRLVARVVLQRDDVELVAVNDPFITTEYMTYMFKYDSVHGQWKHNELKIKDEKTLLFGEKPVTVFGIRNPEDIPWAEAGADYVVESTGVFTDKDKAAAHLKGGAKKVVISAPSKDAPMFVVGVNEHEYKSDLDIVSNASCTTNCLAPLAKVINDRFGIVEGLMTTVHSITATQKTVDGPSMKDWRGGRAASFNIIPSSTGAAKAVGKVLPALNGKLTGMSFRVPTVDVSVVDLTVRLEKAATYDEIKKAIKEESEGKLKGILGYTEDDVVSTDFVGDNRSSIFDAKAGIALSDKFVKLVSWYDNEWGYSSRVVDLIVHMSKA

[2] = target: the molecule itself; assay: far-Western, overlay or dot blot; 2 μg of each protein spotted on nitrocellulose, overlaid with 100 μg/ml aldolase with 0.1 mM GSNO, 5 mM GSSG, 1 mM diamide + 1 mM GSH or 0.5 mM H2O2 + 0.5 mM GSH, 1 h room temperature; glutaraldehyde cross-linking; anti-aldolase antibody

| binding result [1] | Binder | binding result [2] |
| --- | --- | --- |
| binds | VDAC3 (At5g15090) reconstituted into liposomes (natural protein, A. thaliana, UniProt Q9SMX3 1-274, looked up, voltage-dependent anion channel VDAC3, A. thaliana, At5g15090; also called VDAC3 in liposomes; porin; source: cell-free system (RTS 100 Wheat Germ CECF), separated from the reaction mix via reconstitution into liposomes) MVKGPGLYTEIGKKARDLLYRDYQGDQKFSVTTYSSTGVAITTTGTNKGSLFLGDVATQVKNNNFTADVKVSTDSSLLTTLTFDEPAPGLKVIVQAKLPDHKSGKAEVQYFHDYAGISTSVGFTATPIVNFSGVVGTNGLSLGTDVAYNTESGNFKHFNAGFNFTKDDLTASLILNDKGEKLNASYYQIVSPSTVVGAEISHNFTTKENAITVGTQHALDPLTTVKARVNNAGVANALIQHEWRPKSFFTVSGEVDSKAIDKSAKVGIALALKP | – |
| – | recombinant cytosolic fructose 1,6-bisphosphate aldolase (FBA6, At2g36460) (enzyme, A. thaliana, UniProt Q9SJQ9 1-358, looked up, cytosolic fructose 1,6-bisphosphate aldolase FBA6, A. thaliana, At2g36460; Redox reagents were added to the mixtures; no modified residues are named; the redox state is told by the assay; source: recombinant, purified) MSSFTSKFADELIANAAYIGTPGKGILAADESTGTIGKRLASINVENVESNRRALRELLFTTPGALPCLSGVILFEETLYQKSSDGTPFVDMLKSAGVLPGIKVDKGTVELAGTNGETTTQGLDGLGDRCKKYYEAGARFAKWRAVLKIGVNEPSQLAIHENAYGLARYAVICQENGLVPIVEPEILVDGSHDIQKCAAVTERVLAACYKALSDHHVLLEGTLLKPNMVTPGSESAKVAPEVIAEHTVRALQRTVPAAVPAIVFLSGGQSEEEATRNLNAMNQLKTKKPWSLSFSFGRALQQSTLKTWGGKEENVKKAQEAFLVRCKANSEATLGAYKGDAKLGEGAAESLHVKDYKY | binds |

From PMC3540817, “Transfer of a Redox-Signal through the Cytosol by Redox-Dependent Microcompartmentation of Glycolytic Enzymes at Mitochondria and Actin Cytoskeleton” (Frontiers in Plant Science, 2012)
